Data on five molecules can be found in article PMC4047408, “Assembly of the Respiratory Mucin MUC5B” (The Journal of Biological Chemistry, 2014).

The target in series [1] is disulfide-linked NT5B dimer (human) (UniProt Q9HC84). Briefly: AUC; sedimentation velocity, 35,000 rpm, 20 °C; NT5B in 5 mM CaCl2 at pH 5.
Series [2] has the same target. Briefly: AUC; sedimentation velocity, 35,000 rpm, 20 °C; NT5B in 5 mM CaCl2 at pH 6; reversed by 10 mM EGTA and pH 7.4.
The target is the same in series [3]. Kind of series: SEC-MALLS; NT5B in 5 mM CaCl2 at pH 6, Superose 6 10/300, 25 mM Hepes, 150 mM NaCl; recovery in the dimer peak compared with 5 mM EGTA at pH 6.
The target in series [4] is recombinant MUC5B N terminus D1-D2-D′-D3 (NT5B), from 293-EBNA cells (human) (UniProt Q9HC84). Briefly: AUC; sedimentation velocity, 35,000 rpm, 20 °C; NT5B in 5 mM EGTA at pH 7.4 or pH 6, or 5 mM CaCl2 at pH 7.4.
Series [5] has the same target. Briefly: SDS-PAGE, reduced and nonreduced; purified recombinant proteins from 293-EBNA conditioned medium; shows disulfide-linked dimers.
For series [6] the target is unchanged. Kind of series: SEC-MALLS; Superose 6 10/300, 25 mM Hepes, 150 mM NaCl, with 5 mM CaCl2 or 5 mM EGTA at pH 7.4 or pH 6, room temperature, after overnight incubation at 4 °C.
Series [7] concerns the target recombinant MUC5B N terminus D1-D2-D′-D3 (NT5B), from A549 cells (human) (UniProt Q9HC84). Briefly: SDS-PAGE (reduced and nonreduced) and Western blot with anti-His antibody; conditioned medium of transiently transfected A549 cells. (In general: In western blotting, separated proteins are transferred to a membrane and probed.)
Series [8] concerns the molecule itself. Briefly: SDS-PAGE, reduced and nonreduced; purified recombinant proteins from 293-EBNA conditioned medium; shows disulfide-linked dimers.

As for “disulfide-linked NT5B dimer (from UniProt Q9HC84 26-1304) (complex)”, in series [1], the higher order multimeric species, percent of total was 44 % of total. Also, the multimeric fraction (peak III), percent of total in series [2] is 29 % of total. Besides, the reduction of protein recovered in the dimer peak (5 mM CaCl2 pH 6 against 5 mM EGTA pH 6) in series [3] is 15%.
A word on the stoichiometry N: it is a count of units in the complex or per binding partner. “recombinant MUC5B N terminus D1-D2-D′-D3 (NT5B), from 293-EBNA cells (from UniProt Q9HC84 26-1304) (domain or fragment)”: the stoichiometry N in series [4], in series [5] and in series [6] was 2 each time.
On to “recombinant MUC5B N terminus D1-D2-D′-D3 (NT5B), from A549 cells (from UniProt Q9HC84 26-1304) (domain or fragment)”, for which the stoichiometry N in series [7] worked out at 2.

B1: recombinant MUC5B D3 domain (domain or fragment, human, UniProt Q9HC84 894-1304, looked up)
chain: TCVAYGDGHFITFDGDRYSFEGSCEYILAQDYCGDNTTHGTFRIVTENIPCGTTGTTCSKAIKLFVESYELILQEGTFKAVARGPGGDPPYKIRYMGIFLVIETHGMAVSWDRKTSVFIRLHQDYKGRVCGLCGNFDDNAINDFATRSRSVVGDALEFGNSWKLSPSCPDALAPKDPCTANPFRKSWAQKQCSILHGPTFAACRSQVDSTKYYEACVNDACACDSGGDCECFCTAVAAYAQACHDAGLCVSWRTPDTCPLFCDFYNPHGGCEWHYQPCGAPCLKTCRNPSGHCLVDLPGLEGCYPKCPPSQPFFNEDQMKCVAQCGCYDKDGNYYDVGARVPTAENCQSCNCTPSGIQCAHSLEACTCTYEDRTYSYQDVIYNTTDGLGACLIAICGSNGTIIRKAVACPG
notes: MUC5B, human, D3 domain, residues 894-1304; also called D3 protein
As to B1, the “stoichiometry N” value in series [8] amounted to 2.

B2: recombinant MUC5B D2-D′-D3 domains (domain or fragment, human, UniProt Q9HC84 425-1304, looked up)
chain: CSVQGGAHISTYDEKLYDLHGDCSYVLSKKCADSSFTVLAELRKCGLTDNENCLKAVTLSLDGGDTAIRVQADGGVFLNSIYTQLPLSAANITLFTPSSFFIVVQTGLGLQLLVQLVPLMQVFVRLDPAHQGQMCGLCGNFNQNQADDFTALSGVVEATGAAFANTWKAQAACANARNSFEDPCSLSVENENYARHWCSRLTDPNSAFSRCHSIINPKPFHSNCMFDTCNCERSEDCLCAALSSYVHACAAKGVQLSDWRDGVCTKYMQNCPKSQRYAYVVDACQPTCRGLSEADVTCSVSFVPVDGCTCPAGTFLNDAGACVPAQECPCYAHGTVLAPGEVVHDEGAVCSCTGGKLSCLGASLQKSTGCAAPMVYLDCSNSSAGTPGAECLRSCHTLDVGCFSTHCVSGCVCPPGLVSDGSGGCIAEEDCPCVHNEATYKPGETIRVDCNTCTCRNRRWECSHRLCLGTCVAYGDGHFITFDGDRYSFEGSCEYILAQDYCGDNTTHGTFRIVTENIPCGTTGTTCSKAIKLFVESYELILQEGTFKAVARGPGGDPPYKIRYMGIFLVIETHGMAVSWDRKTSVFIRLHQDYKGRVCGLCGNFDDNAINDFATRSRSVVGDALEFGNSWKLSPSCPDALAPKDPCTANPFRKSWAQKQCSILHGPTFAACRSQVDSTKYYEACVNDACACDSGGDCECFCTAVAAYAQACHDAGLCVSWRTPDTCPLFCDFYNPHGGCEWHYQPCGAPCLKTCRNPSGHCLVDLPGLEGCYPKCPPSQPFFNEDQMKCVAQCGCYDKDGNYYDVGARVPTAENCQSCNCTPSGIQCAHSLEACTCTYEDRTYSYQDVIYNTTDGLGACLIAICGSNGTIIRKAVACPG
notes: MUC5B, human, D2-D′-D3 domains, residues 425-1304
Regarding B2, the “stoichiometry N” value in series [8] stood at 2.
